Laboratory results: PMC8967866

Target: Cyanophora paradoxa photosystem I monomer2 (PSI-monomer unit lacking PsaK) (Cyanophora paradoxa (endogenous, strain NIES-547)) (UniProt P48112)
Assay: cryo-EM structure; PSI tetramer purified from Cyanophora thylakoids; GraFix (glutaraldehyde cross-linked) tetramer at 3.8 Å with C2 symmetry; unfixed wild-type tetramer at 4.0 Å; focused maps of monomer1 and monomer2 at 3.3 Å and 3.2 Å; 0.03% β-DDM, 50 mM Mes-NaOH pH 6.5

UniProt P48112, sequence (P48112 whole entry, looked up): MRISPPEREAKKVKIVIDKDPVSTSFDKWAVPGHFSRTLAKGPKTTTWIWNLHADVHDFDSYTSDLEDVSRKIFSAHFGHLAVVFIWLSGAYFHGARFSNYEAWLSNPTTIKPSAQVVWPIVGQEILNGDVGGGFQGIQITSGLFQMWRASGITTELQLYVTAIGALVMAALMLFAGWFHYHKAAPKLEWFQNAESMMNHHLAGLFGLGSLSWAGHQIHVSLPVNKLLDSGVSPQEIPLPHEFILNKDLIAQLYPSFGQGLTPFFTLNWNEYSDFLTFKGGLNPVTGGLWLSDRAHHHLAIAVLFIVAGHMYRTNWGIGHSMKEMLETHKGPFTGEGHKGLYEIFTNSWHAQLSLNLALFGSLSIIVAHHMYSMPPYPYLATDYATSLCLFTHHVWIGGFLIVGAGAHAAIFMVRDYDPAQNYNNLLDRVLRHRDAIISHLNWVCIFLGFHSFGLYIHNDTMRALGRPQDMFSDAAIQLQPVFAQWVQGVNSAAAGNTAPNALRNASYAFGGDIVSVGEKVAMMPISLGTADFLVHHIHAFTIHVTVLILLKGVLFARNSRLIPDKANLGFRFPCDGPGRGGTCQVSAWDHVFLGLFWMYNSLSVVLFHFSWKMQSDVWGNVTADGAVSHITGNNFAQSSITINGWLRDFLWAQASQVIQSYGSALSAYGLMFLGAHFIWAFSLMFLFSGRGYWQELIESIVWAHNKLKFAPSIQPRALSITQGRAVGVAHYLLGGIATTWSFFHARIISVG

- stoichiometry N (PSI-monomer units): 4
Substance: Cyanophora paradoxa photosystem I monomer1 (PSI-monomer unit with PsaK) (from UniProt P48112 1-752; P31173 1-81; Q9T4W8 54-220; P48114 1-70; P48115 26-186; P48116 1-35; P48117 1-40; P48185 1-31) (complex)
